Experimental data taken from article PMC6941992, “Polar recruitment of RLD by LAZY1-like protein during gravity signaling in root branch angle control” (Nature Communications, 2020).

Target: T1, RLD2 BRX domain (residues 1006-1066) (Arabidopsis thaliana, UniProt F4K0X5 1006-1066)
T1 construct: HRV3C cleavage may leave vector residues at the N-terminus (surmised); source: E. coli BL21Star (DE3), purified (His-tag resin, HRV3C cleavage, gel filtration); for crystals co-expressed with LZY3 (274-287); not shown: His6, N-terminal, cleaved
T1 sequence (looked up): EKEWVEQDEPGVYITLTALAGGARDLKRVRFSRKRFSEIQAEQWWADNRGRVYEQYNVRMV
Experiment: ITC; iTC200, 20 °C; 20 mM Tris-HCl pH 8.0, 150 mM NaCl; 200 μM LZY3 (274-287) injected into 20 μM RLD2 BRX domain; 1:1 binding model
Details: both partners purified

Kd: 9.7 ± 2.2 nM
dH: -47.28 ± 0.377 kJ/mol
stoichiometry N: 0.73 ± 0.002
B1: LZY3 CCL peptide (residues 274-287) (peptide, UniProt Q5XVG3 274-287, looked up)
chain: KWVKTDSDFIVLEI
notes: LZY3 (LAZY1-LIKE 3), Arabidopsis thaliana, residues 274-287 (CCL domain); HRV3C cleavage may leave vector residues at the N-terminus (surmised); also called CCL β-hairpin; source: E. coli BL21Star (DE3), purified (glutathione sepharose, HRV3C cleavage, gel filtration, reverse phase); for crystals co-expressed with RLD2; not shown: GST, N-terminal, cleaved
